Data published in patent US20110305716A1.

Tests used:
[1] = target: rat total IgG (Sigma-Aldrich) (rat); experiment: ELISA; rat total IgG coated on plate, 10 ng TGF-beta in 0.1M Tris pH 7.4 (0 mM NaCl), 18 h 4 C, bound TGF-beta detected with TGF-beta ELISA kit
[2] = target: rat total IgG (Sigma-Aldrich) (rat); experiment: ELISA; rat total IgG coated on plate, 10 ng TGF-beta in PBS, 18 h 4 C, bound TGF-beta detected with TGF-beta ELISA kit
[3] = target: rat total IgG (Sigma-Aldrich) (rat); experiment: ELISA; rat total IgG coated on plate, 10 ng TGF-beta in 10% glycerol in 0.1M Tris pH 7.4, 18 h 4 C, bound TGF-beta detected with TGF-beta ELISA kit
[4] = target: rat total IgG (Sigma-Aldrich) (rat); experiment: ELISA; rat total IgG coated on plate, 10 ng TGF-beta in 10% glycerol in PBS, 18 h 4 C, bound TGF-beta detected with TGF-beta ELISA kit
[5] = target: total mouse IgG (Sigma-Aldrich) (mouse); experiment: 20 ng TGF-beta and 1 ug soluble total mouse IgG, 5 min in PBS at 42 C; Sepharose G-50 spin column; TGF-beta ELISA of eluate
[6] = target: Mouse IgG2a (eBioscience) (mouse); experiment: Sephadex G-50 gel filtration of the TGF-beta/IgG mixture; fractions assayed by TGF-beta ELISA
[7] = target: Mouse IgG1 (eBioscience) (mouse); experiment: as above
[8] = target: TGF-beta receptors on mink lung epithelial cells (ATCC CCL-64) (mink); experiment: cell-based or functional assay
[9] = target: total mouse IgG (Sigma-Aldrich) (mouse); experiment: 20 ng TGF-beta and 1 ug soluble total mouse IgG, 5 min in PBS at room temperature; Sepharose G-50 spin column; TGF-beta ELISA of eluate
[10] = target: total mouse IgG (Sigma-Aldrich) (mouse); experiment: 20 ng TGF-beta and 1 ug soluble total mouse IgG, 5 min in 0.5x PBS pH 11 at room temperature; Sepharose G-50 spin column; TGF-beta ELISA of eluate

TGF-beta (Leinco Technologies, St. Louis, Mo.) (from UniProt P01137 279-390) (ligand)
Net Absorbance (450) (absorbance at 450) [1]: 1.02
Net Absorbance (450) (absorbance at 450) [2]: 0.18
Net Absorbance (450) (absorbance at 450) [3]: 0.7
Net Absorbance (450) (absorbance at 450) [4]: 0

Transforming growth factor-beta 1 (Peprotech) (from UniProt P01137 279-390) (ligand)
Net Absorbance (450) (absorbance at 450) [5]: 0.117
percent of TGF-beta eluting in the IgG-bound fraction [6]: 40 to 50%
percent of TGF-beta eluting in the IgG-bound fraction [7]: 40 to 50%
Cell Viability (OD450/Control OD450) at 0.25 pg/mL acid-dissociated (Treated) AcTigg (OD450/Control OD450) [8]: 0.621
Cell Viability (OD450/Control OD450) at 2.5 pg/mL acid-dissociated (Treated) AcTigg (OD450/Control OD450) [8]: 0.645
Cell Viability (OD450/Control OD450) at 25 pg/mL acid-dissociated (Treated) AcTigg (OD450/Control OD450) [8]: 0.651
Cell Viability (OD450/Control OD450) at 250 pg/mL acid-dissociated (Treated) AcTigg (OD450/Control OD450) [8]: 0.651
Cell Viability (OD450/Control OD450) at 2500 pg/mL acid-dissociated (Treated) AcTigg (OD450/Control OD450) [8]: 0.616
Net Absorbance (450) (absorbance at 450) [9]: 0.193
Net Absorbance (450) (absorbance at 450) [10]: 0.558

mouse AcTigg (TGF-beta 1 non-covalently bound to mouse IgG1), PEG-precipitated, intact (from UniProt P01137 279-390)
Cell Viability (OD450/Control OD450) at 0.25 pg/mL AcTigg (OD450/Control OD450) [8]: 0.965
Cell Viability (OD450/Control OD450) at 2.5 pg/mL AcTigg (OD450/Control OD450) [8]: 0.924
Cell Viability (OD450/Control OD450) at 25 pg/mL AcTigg (OD450/Control OD450) [8]: 0.897
Cell Viability (OD450/Control OD450) at 250 pg/mL AcTigg (OD450/Control OD450) [8]: 0.817
Cell Viability (OD450/Control OD450) at 2500 pg/mL AcTigg (OD450/Control OD450) [8]: 0.678
